± gives the uncertainty stated by the source.
B1: Ankyrin repeat and SAM domain-containing protein 6, residues 774 to 836; numbered along this chain, Q68DC2 (parent)
chain: DEDELTGILKKLSLEKYQPIFEEQEVDMEAFLTLTDGDLKELGIKTDGSRQQILAAISELNAG
B2: Mineralocorticoid receptor, residues 600 to 675; numbered along this chain, P08235 (parent)
chain: SKICLVCGDEASGCHYGVVTCGSCKVFFKRAVEGQHNYLCAGRNDCIIDKIRRKNCPACRLQKCLQAGMNLGARKS

Variants of: B1
Assay: abundance fitness (aPCA) (normalised: wild type 0, dead -1); higher = more abundant; growth selection in yeast, the domain comes from the species named
Conditions: Homo sapiens

Abundance fitness: each site, then its substitutions
D1: I 0.158 ± 0.19; N 0.113 ± 0.12; E -0.103 ± 0.14; M 0.351 ± 0.14; W -0.363 ± 0.31; L 0.223 ± 0.12; F -0.312 ± 0.3; T 0.007 ± 0.13; Q 0.002 ± 0.14; S 0.045 ± 0.17; A -0.023 ± 0.076; Y 0.031 ± 0.088; G -0.039 ± 0.078
I20: D -0.091 ± 0.15; K -0.104 ± 0.07; A -0.111 ± 0.059; H -0.213 ± 0.16; G -0.494 ± 0.065; C 0.015 ± 0.074; F -0.352 ± 0.17; E -0.299 ± 0.12
E4: P -0.619 ± 0.093; M -0.27 ± 0.19; A -0.527 ± 0.078; D -0.334 ± 0.079; V -0.215 ± 0.062; R -0.602 ± 0.062; H -0.31 ± 0.16; C -0.016 ± 0.065; G -0.254 ± 0.054; F -0.05 ± 0.16; T -0.201 ± 0.066; Q -0.619 ± 0.14; I 0.179 ± 0.15; N -0.838 ± 0.17; S -0.148 ± 0.054; K -0.452 ± 0.081; L -0.326 ± 0.053; Y -0.511 ± 0.16; W -0.582 ± 0.087
K10: V -0.595 ± 0.049; D -0.663 ± 0.087; E -0.084 ± 0.082; P -0.525 ± 0.089; T -0.049 ± 0.11; N -0.481 ± 0.067; C -1.01 ± 0.095; S -0.185 ± 0.073; W -0.831 ± 0.066; A -0.069 ± 0.052; H -0.406 ± 0.066; Q -0.233 ± 0.088; G -0.56 ± 0.046; F -1.16 ± 0.15; L -0.656 ± 0.059; R -0.327 ± 0.052; I -0.815 ± 0.16
Q18: C -0.146 ± 0.09; E -0.119 ± 0.046; P -0.786 ± 0.092; M -0.035 ± 0.068; H -0.221 ± 0.17; R -0.025 ± 0.071; N -0.538 ± 0.5; Y -0.539 ± 0.2; W -0.31 ± 0.057; F -0.407 ± 0.08; T -0.076 ± 0.075; L -0.092 ± 0.052; S -0.075 ± 0.075; V -0.12 ± 0.057; I -0.051 ± 0.12; G -0.078 ± 0.057; A 0.07 ± 0.054; D -0.344 ± 0.17
E2: W 0.143 ± 0.069; H 0.248 ± 0.32; A -0.029 ± 0.055; G -0.158 ± 0.059; F 0.287 ± 0.079; V -0.234 ± 0.065; M 0.565 ± 0.19; Y 0.063 ± 0.078; T 0.361 ± 0.23; C 0.142 ± 0.084; R 0.081 ± 0.072; Q 0.11 ± 0.19; L 0.288 ± 0.08; N 0.047 ± 0.084; P 0.112 ± 0.16
L9: S -0.729 ± 0.081; E -1.02 ± 0.097; R -0.999 ± 0.068; Q -0.876 ± 0.16; C -0.801 ± 0.064; V -0.712 ± 0.072; M -0.193 ± 0.058; K -1.06 ± 0.15; W -0.963 ± 0.11; T -1.29 ± 0.19; F -0.077 ± 0.13; I -0.741 ± 0.15; A -0.913 ± 0.091; H -1.07 ± 0.18; G -0.917 ± 0.081; Y -0.935 ± 0.15
K16: E 0.175 ± 0.076; C -0.083 ± 0.073; H 0.011 ± 0.19; Y -0.251 ± 0.066; P 0.001 ± 0.066; G -0.135 ± 0.046; I -0.408 ± 0.18; A 0.074 ± 0.046; Q -0.253 ± 0.13; M -0.084 ± 0.086; S -0.103 ± 0.071; F -0.339 ± 0.14; V -0.113 ± 0.063; R -0.203 ± 0.054
G7: D 0.039 ± 0.092; E -0.016 ± 0.095; N -0.092 ± 0.13; H 0.185 ± 0.1; C -0.072 ± 0.089; R 0.108 ± 0.045; W -0.005 ± 0.063; L 0.102 ± 0.11; A 0.042 ± 0.05; T 0.111 ± 0.067; Q 0.177 ± 0.099; V -0.191 ± 0.057; I 0.129 ± 0.11; M 0.199 ± 0.073; F -0.027 ± 0.12; P -0.111 ± 0.068; Y -0.044 ± 0.11; K 0.048 ± 0.081
Y17: H -0.505 ± 0.14; S -0.49 ± 0.059; E -0.026 ± 0.068; G -0.399 ± 0.054; D -0.322 ± 0.091; N -0.344 ± 0.14; V -0.355 ± 0.063; Q -0.339 ± 0.088; C -0.255 ± 0.096; P -0.756 ± 0.045; K -0.426 ± 0.072; A -0.561 ± 0.064; M 0.031 ± 0.06; L -0.127 ± 0.05; F -0.045 ± 0.039; T -0.509 ± 0.081; W -0.043 ± 0.062
D3: V -0.267 ± 0.078; Y 0.116 ± 0.086; R -0.064 ± 0.046; H 0.2 ± 0.063; L 0.133 ± 0.052; Q 0.08 ± 0.056; P -0.177 ± 0.067; N -0.074 ± 0.064; E -0.078 ± 0.082; I -0.082 ± 0.1; G -0.472 ± 0.098; K 0.162 ± 0.067; C 0.057 ± 0.078; M 0.209 ± 0.08; A -0.157 ± 0.054; T -0.118 ± 0.091; S 0.054 ± 0.05; F 0.084 ± 0.12
E15: M -0.123 ± 0.085; C -0.343 ± 0.057; G -0.433 ± 0.05; A -0.271 ± 0.062; K -0.869 ± 0.35; R -0.53 ± 0.043; P -0.687 ± 0.068; L -0.185 ± 0.065; D -0.158 ± 0.076; S -0.143 ± 0.052; N -0.492 ± 0.36; V -0.36 ± 0.06; F -0.505 ± 0.12; W -0.657 ± 0.079; I -0.323 ± 0.084; T -0.21 ± 0.11; Q -0.037 ± 0.065
L5: H -0.839 ± 0.13; R -0.71 ± 0.087; G -0.969 ± 0.12; S -0.84 ± 0.1; I -0.05 ± 0.16; M -0.116 ± 0.15; V -0.18 ± 0.056; D -1.01 ± 0.11; P -0.559 ± 0.092; Y -0.504 ± 0.12; K -0.895 ± 0.15; E -1.07 ± 0.15; Q -0.639 ± 0.13; A -0.864 ± 0.068
I8: K -0.162 ± 0.044; E -0.206 ± 0.079; F -0.131 ± 0.16; R -0.238 ± 0.038; C -0.029 ± 0.088; M 0.145 ± 0.078; P -1.03 ± 0.13; W -0.163 ± 0.058; L 0.149 ± 0.061; D -0.51 ± 0.1; Q 0.105 ± 0.089; T -0.058 ± 0.065; S -0.265 ± 0.066; N -0.192 ± 0.1; Y -0.186 ± 0.078; V -0.072 ± 0.1; H -0.189 ± 0.072; A 0.158 ± 0.075
L14: N -1.42 ± 0.41; T -1.37 ± 0.16; E -0.777 ± 0.1; F -0.583 ± 0.12; V -0.655 ± 0.069; C -0.64 ± 0.078; W -0.946 ± 0.088; Q -1.17 ± 0.21; Y -0.97 ± 0.12; I -0.332 ± 0.095; P -0.845 ± 0.1; H -1.01 ± 0.34; A -0.94 ± 0.084; M -0.303 ± 0.058; G -1.05 ± 0.083; K -0.918 ± 0.12
L12: K -0.256 ± 0.09; I 0.254 ± 0.29; R -0.538 ± 0.043; E -0.949 ± 0.18; P -1.16 ± 0.16; C -0.023 ± 0.077; H 0.171 ± 0.09; F 0.005 ± 0.11; Y 0.09 ± 0.45; M 0.038 ± 0.064; D -1.08 ± 0.21; N -0.402 ± 0.29; S -0.531 ± 0.057; W -0.061 ± 0.054; G -0.927 ± 0.078; T -0.35 ± 0.083; V -0.369 ± 0.054; Q -0.567 ± 0.095; A -0.439 ± 0.082
S13: W -0.472 ± 0.072; Q 0.042 ± 0.053; V -0.567 ± 0.094; H 0.075 ± 0.08; R -0.04 ± 0.048; P -0.736 ± 0.078; I -0.202 ± 0.21; N 0.039 ± 0.1; D 0.131 ± 0.073; T -0.127 ± 0.051; A -0.067 ± 0.058; Y -0.623 ± 0.12; F -0.62 ± 0.14; L -0.497 ± 0.056; E -0.002 ± 0.049
P19: M -0.035 ± 0.15; N -0.059 ± 0.071; A -0.073 ± 0.068; K -0.416 ± 0.12; F -0.285 ± 0.051; R -0.116 ± 0.057; V -0.346 ± 0.055; C -0.247 ± 0.057; T -0.138 ± 0.078; W -0.208 ± 0.14; L -0.456 ± 0.072; S -0.094 ± 0.04; Y -0.234 ± 0.054; Q -0.21 ± 0.16; I -0.509 ± 0.05; G -0.116 ± 0.055; D -0.023 ± 0.083; H 0.005 ± 0.048
K11: Y -0.553 ± 0.087; L -0.363 ± 0.044; A -0.15 ± 0.06; E -0.391 ± 0.12; M -0.195 ± 0.11; N -0.254 ± 0.1; Q -0.099 ± 0.13; P -0.689 ± 0.061; G -0.224 ± 0.064; D -0.166 ± 0.079; R -0.071 ± 0.053; H -0.621 ± 0.2; T -0.428 ± 0.078; S -0.305 ± 0.058
T6: I -0.436 ± 0.29; A 0.146 ± 0.11; V -0.353 ± 0.22

Variants of: B2
Assay: as above
Conditions: Homo sapiens

Abundance fitness, by site and new letter:
S76: E -0.044 ± 0.095; D -0.031 ± 0.12; C -0.128 ± 0.063; W 0.122 ± 0.098; Y -0.075 ± 0.079; I -0.198 ± 0.13; P 0.007 ± 0.06; R -0.116 ± 0.057; L -0.012 ± 0.042; N -0.071 ± 0.094; G -0.076 ± 0.047; T 0.01 ± 0.066; V -0.173 ± 0.071; Q -0.096 ± 0.21; K -0.654 ± 0.5; H -0.051 ± 0.1; F -0.119 ± 0.06; M -0.084 ± 0.1
K75: P 0.011 ± 0.062; V 0.034 ± 0.049; T 0.014 ± 0.07; W -0.007 ± 0.058; Y -0.051 ± 0.073; S 0.065 ± 0.047; Q 0.05 ± 0.062; N -0.092 ± 0.08; M -0.025 ± 0.064

From the Human Domainome abundance scans (Beltran et al. 2025)
